The sequences below were run on Escherichia coli TOP10 (assay: shrunken log2 fold change of peptide-encoding DNA abundance (4.5 h post-induction vs induction); higher = less antimicrobial activity (less host growth inhibition)). Settings: time post-induction: 4.5 h; library: site-saturation at positions 5, 18, 19, 20.
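Also: peptides expressed intracellularly from a pBAD plasmid library in pooled LB shake-flask culture, induced with 0.3% L-arabinose, DNA abundance read by NGS, three biological replicates, DESeq2 with apeglm shrinkage.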

Sequence	shrunken log2 fold change
RRIRDRPPRLPRPRPRPMVRPRP	0.152
RRIRGRPPRLPRPRPRPPNYPRP	0.299
RRIRTRPPRLPRPRPRPPSHPRP	-0.143
RRIRGRPPRLPRPRPRPEQRPRP	0.926
RRIRYRPPRLPRPRPRPRMEPRP	-0.0654
RRIRERPPRLPRPRPRPAHVPRP	-0.0768
RRIRPRPPRLPRPRPRPQQCPRP	-0.462
RRIRCRPPRLPRPRPRPGTRPRP	0.139
RRIRCRPPRLPRPRPRPEHWPRP	0.118
RRIRSRPPRLPRPRPRPYIYPRP	-0.778
RRIRCRPPRLPRPRPRPTITPRP	-0.44
RRIRQRPPRLPRPRPRPYDKPRP	-0.119
RRIRYRPPRLPRPRPRPQNVPRP	-0.389
RRIRIRPPRLPRPRPRPTGFPRP	-0.0748
RRIRARPPRLPRPRPRPHSKPRP	-0.154
RRIRPRPPRLPRPRPRPPMWPRP	0.412
RRIRRRPPRLPRPRPRPWQLPRP	0.144
RRIRRRPPRLPRPRPRPCRTPRP	0.173
RRIRYRPPRLPRPRPRPTGAPRP	0.136
RRIRIRPPRLPRPRPRPNQVPRP	-0.429
RRIRDRPPRLPRPRPRPEISPRP	0.134
RRIRKRPPRLPRPRPRPVTEPRP	0.42
RRIRHRPPRLPRPRPRPNGDPRP	-0.0512
RRIRWRPPRLPRPRPRPVIRPRP	0.0511
RRIRTRPPRLPRPRPRPDRWPRP	0.0353

Sequence	shrunken log2 fold change
RRIRDRPPRLPRPRPRPWQLPRP	0.0822
RRIRSRPPRLPRPRPRPQDAPRP	0.0464
RRIRARPPRLPRPRPRPFFSPRP	-0.0124
RRIRGRPPRLPRPRPRPMGDPRP	0.783
RRIRLRPPRLPRPRPRPYNQPRP	-0.693
RRIRNRPPRLPRPRPRPPQAPRP	0.0708
RRIRVRPPRLPRPRPRPNHFPRP	-0.346
RRIRKRPPRLPRPRPRPCDKPRP	0.000564
RRIRLRPPRLPRPRPRPLERPRP	-0.000861
RRIRKRPPRLPRPRPRPSPIPRP	0.0333
RRIRSRPPRLPRPRPRPDEMPRP	0.435
RRIRLRPPRLPRPRPRPAHGPRP	-0.0453
RRIRQRPPRLPRPRPRPPPAPRP	0.804
RRIRLRPPRLPRPRPRPDKSPRP	-0.118
RRIRKRPPRLPRPRPRPKIRPRP	0.246
RRIRARPPRLPRPRPRPLAGPRP	2.52
RRIRVRPPRLPRPRPRPYQQPRP	-0.323
RRIRVRPPRLPRPRPRPEPHPRP	-0.0157
RRIRTRPPRLPRPRPRPGHDPRP	-0.108
RRIRHRPPRLPRPRPRPHASPRP	0.00288
RRIRPRPPRLPRPRPRPQGMPRP	-0.279
RRIRQRPPRLPRPRPRPNWVPRP	0.00521
RRIRYRPPRLPRPRPRPPEGPRP	-0.455
RRIRRRPPRLPRPRPRPLLCPRP	0.35
RRIRRRPPRLPRPRPRPWEVPRP	0.125

Sequence	shrunken log2 fold change
RRIRPRPPRLPRPRPRPLPLPRP	-0.128
RRIRERPPRLPRPRPRPACKPRP	0.104
RRIRHRPPRLPRPRPRPPLVPRP	0.0953
RRIRRRPPRLPRPRPRPKPSPRP	0.294
RRIRMRPPRLPRPRPRPADTPRP	0.367
RRIRCRPPRLPRPRPRPVGYPRP	0.0595
RRIRMRPPRLPRPRPRPVVKPRP	0.189
RRIRVRPPRLPRPRPRPIFLPRP	-0.157
RRIRKRPPRLPRPRPRPSCGPRP	0.817
RRIRCRPPRLPRPRPRPSQFPRP	-0.787
RRIRARPPRLPRPRPRPEGPPRP	0.577
RRIRRRPPRLPRPRPRPSWRPRP	0.355
RRIRDRPPRLPRPRPRPTTLPRP	0.525
RRIRRRPPRLPRPRPRPACKPRP	0.163
RRIRRRPPRLPRPRPRPWMWPRP	0.0918
RRIRGRPPRLPRPRPRPMNKPRP	1.69
RRIRTRPPRLPRPRPRPNQAPRP	0.00454
RRIRPRPPRLPRPRPRPGYYPRP	-0.45
RRIRNRPPRLPRPRPRPWNPPRP	-0.0102
RRIRFRPPRLPRPRPRPTKMPRP	0.0196
RRIRYRPPRLPRPRPRPSTCPRP	-0.687
RRIRSRPPRLPRPRPRPHVMPRP	-0.103
RRIRERPPRLPRPRPRPIMCPRP	-0.275
RRIRWRPPRLPRPRPRPAKAPRP	0.747
RRIRNRPPRLPRPRPRPKVNPRP	0.0323

Sequence	shrunken log2 fold change
RRIRYRPPRLPRPRPRPAQKPRP	-0.0925
RRIRRRPPRLPRPRPRPQRQPRP	0.175
RRIRGRPPRLPRPRPRPQQYPRP	-0.107
RRIRGRPPRLPRPRPRPMSEPRP	0.286
RRIRFRPPRLPRPRPRPNNIPRP	-1.04
RRIRSRPPRLPRPRPRPLDYPRP	-0.194
RRIRMRPPRLPRPRPRPIVKPRP	0.0312
RRIRWRPPRLPRPRPRPPCLPRP	0.186
RRIRYRPPRLPRPRPRPGEQPRP	0.0237
RRIRIRPPRLPRPRPRPSAWPRP	0.0616
RRIRQRPPRLPRPRPRPMQDPRP	-0.0104
RRIRMRPPRLPRPRPRPTWFPRP	0.448
RRIRHRPPRLPRPRPRPCNSPRP	-0.0938
RRIRRRPPRLPRPRPRPQGQPRP	-0.0135
RRIRYRPPRLPRPRPRPYREPRP	0.0196
RRIRFRPPRLPRPRPRPAVGPRP	0.591
RRIRLRPPRLPRPRPRPVIYPRP	-0.224
RRIRFRPPRLPRPRPRPNHNPRP	-0.711
RRIRLRPPRLPRPRPRPMPKPRP	-0.105
RRIRGRPPRLPRPRPRPWEIPRP	0.361
RRIRRRPPRLPRPRPRPERDPRP	0.423
RRIRCRPPRLPRPRPRPFNDPRP	0.0223
RRIRQRPPRLPRPRPRPLSCPRP	-0.242
RRIRFRPPRLPRPRPRPDWIPRP	-0.114
RRIRYRPPRLPRPRPRPNWPPRP	0.394

Sequence	shrunken log2 fold change
RRIRARPPRLPRPRPRPADSPRP	0.00021
RRIRRRPPRLPRPRPRPCNGPRP	-0.199
RRIRMRPPRLPRPRPRPCLRPRP	-0.0737
RRIRTRPPRLPRPRPRPYDQPRP	-0.241
RRIRTRPPRLPRPRPRPGTDPRP	-0.253
RRIRDRPPRLPRPRPRPVYQPRP	-0.263
RRIRERPPRLPRPRPRPWAAPRP	-0.101
RRIRCRPPRLPRPRPRPKWNPRP	-0.373
RRIRCRPPRLPRPRPRPHMDPRP	-0.329
RRIRCRPPRLPRPRPRPGCLPRP	0.115
RRIRMRPPRLPRPRPRPMYRPRP	-0.0586
RRIRPRPPRLPRPRPRPIEPPRP	0.109
RRIRGRPPRLPRPRPRPHHSPRP	-0.196
RRIRARPPRLPRPRPRPQWNPRP	-0.00397
RRIRYRPPRLPRPRPRPDPLPRP	-0.0227
RRIRCRPPRLPRPRPRPHALPRP	-0.0688
RRIRNRPPRLPRPRPRPMMIPRP	-0.0237
RRIRERPPRLPRPRPRPASHPRP	-0.34
RRIRVRPPRLPRPRPRPSDMPRP	-0.519
RRIRPRPPRLPRPRPRPAYWPRP	0.212
RRIRTRPPRLPRPRPRPYRRPRP	-0.0138
RRIRLRPPRLPRPRPRPRKPPRP	0.751
RRIRQRPPRLPRPRPRPPVTPRP	0.199
RRIRHRPPRLPRPRPRPCDFPRP	-0.0501
RRIRNRPPRLPRPRPRPGFNPRP	-0.207

— the supplement of paper PMC9112550, “Optimization of the antimicrobial peptide Bac7 by deep mutational scanning” (BMC Biology, 2022)
